EP4725956A1, “MODIFIED POLYPEPTIDE AND USE THEREOF IN FIELD OF ANALGESIA” (Nanjing Anji Biotechnology Co., Ltd., priority 2023, dated 2024)
Positions of bridges follow the written chain, without caps; N, C: chain ends. Non-standard residues stand in square brackets, D forms with d. Residues, ends and D or L forms follow the SMILES beside them. No end group written: not given here. Bip = N[C@@H](Cc1ccc(-c2ccccc2)cc1)C(=O)O; Hyp = O=C(O)[C@@H]1C[C@@H](O)CN1; Nle = CCCC[C@H](N)C(=O)O; Orn = NCCC[C@H](N)C(=O)O; Aib = CC(C)(N)C(=O)O

Experiments:
[1] = In vitro plasma stability and predicted half-life (HPLC main peak area, Example 3); format: in vitro ADME; details: human plasma (EDTA anticoagulant), 37°C, sampled up to 24 h, predicted half-life calculated with Winolin
Experimental: The modified peptides in this study were designed with non-natural amino acid substitutions at certain non-essential positions to enhance peptide stability and improve druggability. Peptides were dissolved in deionized water to 2 mg/mL, then diluted with acetonitrile to 1 mg/mL and filtered through an organic membrane. 200 µL of the filtrate was transferred to an LC vial as the peptide control. 300 µL of human plasma (comprising EDTA as anticoagulant, Nanjing Senbeijia Biotechnology Co., Ltd., Lot No. SBJ-P-HU011-100 mL) was mixed with 300 µL acetonitrile, centrifuged at 4°C and 12,000 rpm for 5 minutes. The supernatant was filtered through an organic membrane, and 200 µL of the filtrate was transferred to an LC vial as the plasma blank control. For peptide samples, 10 mg of peptide was weighed mixed with 5 mL of human plasma and vortexed thoroughly. 300 µL of peptide-containing plasma was mixed with 300 µL acetonitrile, centrifuged at 4°C and 12,000 rpm for 5 minutes, and the supernatant was filtered through an organic membrane. 200 µL of the filtrate was transferred to an LC vial as the 0 min sample. Peptide-containing plasma was incubated in a 37°C water bath, and samples at other time points were collected using the same procedure as the 0 min sample. For peptides AJ003 and AJ003-1, the sampling time points were 0 min, 5 min, 10 min, 20 min, 30 min, 1 h, 2 h, 4 h, 6 h, 10 h, 12 h, and 24 h. For modified peptides AJ003-34, AJ003-35, AJ003-36, AJ003-37, AJ003-38, AJ003-39, AJ003-40, AJ003-41, and AJ003-42, the time points were 0 min, 10 min, 30 min, 1 h, 4 h, 6 h, 10 h, 12 h, and 24 h. All peptide sample series were analyzed by HPLC, recording the changes in main peak areas over plasma incubation time. Predicted in vitro half-lives were calculated using the pharmacokinetic software Winolin. Due to the presence of tautomers, AJ003 peak areas were difficult to integrate accurately over time. AJ003-1 is an analog of AJ003 in which the threonine at position 5 is substituted with D-threonine; its sequence differs from AJ003 by only one amino acid configuration. […] The in vitro plasma half-lives of modified peptides AJ003-34, AJ003-35, AJ003-36, AJ003-37, AJ003-38, AJ003-39, AJ003-40, AJ003-41, and AJ003-42 were 61.9 h, 45.3 h, 65.3 h, 71.0 h, 26.7 h, 43.0 h, 84.0 h, 30.0 h, and 61.4 h, respectively.

[2] = test system: rat paclitaxel-induced chronic chemotherapy pain model; assay: Rat paclitaxel chemotherapy pain model, same dose (Example 5); format: in vivo; details: 1 mg/kg s.c.
Experimental: Male SPF (Specific Pathogen Free) SD rats weighing 180-200 g (Shanghai Institute of Planned Parenthood Research, Experimental Animal Department) were used. On the day of model induction, rats were weighed, and baseline mechanical pain thresholds were measured. Animals with large differences in body weight or pain threshold were excluded, and the remaining rats were subjected to the experimental protocol. Paclitaxel powder was dissolved in olive oil to 1 mg/mL. Each rat received an intraperitoneal injection of 2 mg/kg per dose. Four injections were administered on days 1, 3, 5, and 7. Rats in the negative control or vehicle control group received injections of the solvent used to dissolve paclitaxel. […] The blank group in Table 4 represents rats without pain modeling, and the model group represents rats with pain modeling but no drug treatment. On days 1, 3, 5, and 12, drugs were administered at fixed times. On days 1, 3, and 5, mechanical pain thresholds of the right hind paw at the corresponding time were measured at 1 h, 2.5 h, 4 h, and 5.5 h after dosing using a blunt probe. On day 12, mechanical pain thresholds were measured at 4 h and 7 h after dosing. […] AJ003-36 and AJ003-40 were thus identified as candidate molecules for further study. Paclitaxel is a widely used small-molecule chemotherapy drug that, while effective against tumors, can induce neuropathic pain in many cancer patients due to neurotoxicity. The chronic chemotherapy pain model induced in male SD rats via multiple low-dose intraperitoneal injections of paclitaxel simulates clinical chemotherapy-induced neuropathic pain. Using this model, the analgesic effects of five modified peptides, the parent peptide AJ003, and the positive control pregabalin were evaluated. […] Table 4 Dosing Scheme for Screening Analgesic Activity of Selected Modified Peptides at the Same Dose in the Paclitaxel Chemotherapy Pain Model

α7 nAChR [3] = molecular target: α7 nAChR (Homo sapiens, UniProt P36544); assay: BLI (biolayer interferometry) affinity of peptides to α7 nAChR; format: binding; parameters: inferred from the 'similar' procedure on NTA sensors; details: NTA sensor, α7 nAChR 20 µg/mL, peptide 1.372-1000 nM in PBS
From the text: BLI is a label-free technology that converts optical interference signals occurring on the surface of BLI biosensors into real-time response signals. By monitoring the molecular binding process in real time, the system determines association rate constants (ka or kon), dissociation rate constants (kd or koff), and initial binding rates, and calculates affinity (KD) by fitting analysis. Here are the specific procedures: NTA sensors (Sartorius) were placed in a pre-wetting tray, which was then positioned in a black 96-well plate with 200 µL PBS per well. The NTA sensors were pre-wetted for at least 15 minutes. The target protein α9 nAChR was diluted in PBS to 5 µg/mL, with 200 µL added per well. Test peptides were dissolved in PBS and serially diluted threefold, with concentrations from high to low as 1000 nM, 333.3 nM, 111.1 nM, 37.04 nM, 12.35 nM, 4.115 nM, and 1.372 nM, with an additional well with PBS only as a zeroconcentration control. After equilibrating the instrument baseline, the NTA sensor was used to immobilize the target protein α9 nAChR. Once immobilization was complete, the baseline was re-equilibrated, followed by a 5-minute association and a 5-minute dissociation phase. Affinity measurements of the test peptides were conducted sequentially using the above procedure. The procedure for measuring peptide affinity to α7 nAChR was similar, except that the α7 nAChR concentration was 20 µg/mL. Tables 2 and 3 show the BLI-determined affinities of alanine-scan peptide analogs with target proteins, which identified sites on the parent peptide suitable for modification. Subsequently, single-site non-natural amino acid substituted peptides were evaluated by BLI for target protein affinity. Finally, multi-site combinatorial modified peptides were measured for affinity by BLI, leading to the selection of high-affinity peptides for further screen and drug development potential. Table 2 Test Results for Affinity of Modified Peptides to α9 nAChR

α9 nAChR = molecular target: T1, α9 nAChR (human, UniProt Q9UGM1 23-238); assay: BLI, α9 nAChR captured on NTA sensor, peptide 1.372-1000 nM in solution
T1 construct: also called target protein α9 nAChR; α9 nicotinic acetylcholine receptor

α7 nAChR [4] = molecular target: T2, α7 nAChR (human, UniProt P36544 23-233); assay: BLI, α7 nAChR captured on NTA sensor, peptide in solution
T2 construct: also called target protein α7 nAChR; α7 nicotinic acetylcholine receptor
T2 sequence (P36544 23-233 limits assumed): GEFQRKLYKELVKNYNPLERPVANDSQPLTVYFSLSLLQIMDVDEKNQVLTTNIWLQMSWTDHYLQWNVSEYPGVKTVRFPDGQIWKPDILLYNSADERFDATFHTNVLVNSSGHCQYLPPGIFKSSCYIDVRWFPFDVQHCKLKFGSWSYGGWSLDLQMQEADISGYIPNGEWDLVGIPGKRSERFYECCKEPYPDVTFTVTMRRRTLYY

T1 sequence (Q9UGM1 23-238 limits assumed): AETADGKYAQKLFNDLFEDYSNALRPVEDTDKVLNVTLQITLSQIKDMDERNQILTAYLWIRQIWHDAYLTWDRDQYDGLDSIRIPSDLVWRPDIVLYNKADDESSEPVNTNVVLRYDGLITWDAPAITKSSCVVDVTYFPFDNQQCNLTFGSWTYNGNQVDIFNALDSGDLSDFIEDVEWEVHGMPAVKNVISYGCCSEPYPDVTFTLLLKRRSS

CCCC[C@H](NC(=O)[C@@H](NC(=O)[C@H]1CSSC[C@H](NC(=O)[C@H](CO)NC(=O)CN)C(=O)N[C@@H](CO)C(=O)N[C@H]([C@H](C)O)C(=O)N2C[C@H](O)C[C@H]2C(=O)N2C[C@H](O)C[C@H]2C(=O)N[C@@H](CO)C(=O)N1)C(C)C)C(=O)N[C@@H](Cc1ccc(-c2ccccc2)cc1)C(=O)N[C@@H](CCCN)C(N)=O [AJ003-34, GSCS-(D-Thr)-Hyp-Hyp-S-(D-Cys)-V-Nle-Bip-Orn-NH2 (3,9 disulfide bond)] (H-GSCS[dT][Hyp][Hyp]S[dC]V[Nle][Bip][Orn]-NH2; disulfide 3-9)
half-life at 2 mg/mL [1]: 61.9 h | ranking among the five candidate modified peptides [2]: top three analgesic candidates | Kd (α7 nAChR [3]): 360 nM

CCCC[C@H](NC(=O)[C@@H](NC(=O)[C@H]1CSSC[C@H](NC(=O)[C@H](CO)NC(=O)CN)C(=O)N[C@@H](CO)C(=O)N[C@H]([C@H](C)O)C(=O)N2C[C@H](O)C[C@H]2C(=O)N2C[C@H](O)C[C@H]2C(=O)N[C@@H](CO)C(=O)N1)C(C)C)C(=O)N[C@@H](Cc1ccccc1)C(=O)N[C@@H](CCCN)C(N)=O [AJ003-37, GSCS-(D-Thr)-Hyp-Hyp-S-(D-Cys)-V-Nle-F-Orn-NH2 (3,9 disulfide bond)] (H-GSCS[dT][Hyp][Hyp]S[dC]V[Nle]F[Orn]-NH2; disulfide 3-9)
half-life at 2 mg/mL [1]: 71 h | Kd (α7 nAChR [3]): 68.7 nM

CCCC[C@H](NC(=O)[C@@H](NC(=O)[C@H]1CSSC[C@H](NC(=O)[C@H](CO)NC(=O)CN)C(=O)N[C@@H](CO)C(=O)N[C@H]([C@H](C)O)C(=O)N2C[C@H](O)C[C@H]2C(=O)N2C[C@H](O)C[C@H]2C(=O)N[C@@H](C)C(=O)N1)C(C)C)C(=O)N[C@@H](Cc1ccc(-c2ccccc2)cc1)C(=O)N[C@@H](CCCN)C(N)=O [AJ003-35, GSCS-(D-Thr)-Hyp-Hyp-A-(D-Cys)-V-Nle-Bip-Orn-NH2 (3,9 disulfide bond)] (H-GSCS[dT][Hyp][Hyp]A[dC]V[Nle][Bip][Orn]-NH2; disulfide 3-9)
half-life at 2 mg/mL [1]: 45.3 h | Kd (α7 nAChR [3]): 142 nM

CCCC[C@H](NC(=O)[C@@H](NC(=O)[C@H]1CSSC[C@H](NC(=O)[C@H](CO)NC(=O)CN)C(=O)N[C@@H](CO)C(=O)N[C@H]([C@H](C)O)C(=O)N2C[C@H](O)C[C@H]2C(=O)N2C[C@H](O)C[C@H]2C(=O)NC(C)(C)C(=O)N1)C(C)C)C(=O)N[C@@H](Cc1c[nH]c2ccccc12)C(=O)N[C@@H](CCCN)C(N)=O [AJ003-42, GSCS-(D-Thr)-Hyp-Hyp-Aib-(D-Cys)-V-Nle-W-Orn-NH2 (3,9 disulfide bond)] (H-GSCS[dT][Hyp][Hyp][Aib][dC]V[Nle]W[Orn]-NH2; disulfide 3-9)
half-life at 2 mg/mL [1]: 61.4 h | Kd (α7 nAChR [3]): 21.2 nM

B1: AJ003-21 (peptide)
peptide: GSCS[dT]PPS[dC]VLAS
modifications: disulfide 3-9
notes: Printed: GSCS-(D-Thr)-PPS-(D-Cys)-VLAS (3,9 disulfide bond)
Kd (α9 nAChR): 514 nM

B2: AJ003-12 (peptide)
peptide: ASCS[dT]PPS[dC]VLYS
modifications: disulfide 3-9
notes: Printed: ASCS-(D-Thr)-PPS-(D-Cys)-VLYS (3,9 disulfide bond)
Kd (α9 nAChR): 31600 nM

B3: AJ003-19 (peptide)
peptide: GSCS[dT]PPS[dC]ALYS
modifications: disulfide 3-9
notes: Printed: GSCS-(D-Thr)-PPS-(D-Cys)-ALYS (3,9 disulfide bond)
Kd (α9 nAChR): 317 nM

B4: AJ003-30 (peptide)
peptide: GSCS[dT]PPS[dC]VLWS
modifications: disulfide 3-9
notes: Printed: GSCS-(D-Thr)-PPS-(D-Cys)-VLWS (3,9 disulfide bond)
Kd (α7 nAChR [4]): 27.8 nM

B5: AJ003-22 (peptide)
peptide: GSCS[dT]PPS[dC]VLYA
modifications: disulfide 3-9
notes: Printed: GSCS-(D-Thr)-PPS-(D-Cys)-VLYA (3,9 disulfide bond)
Kd (α9 nAChR): 163 nM

B6: AJ003-26 (peptide)
peptide: GSCS[dT]PPS[dC]GLYS
modifications: disulfide 3-9
notes: Printed: GSCS-(D-Thr)-PPS-(D-Cys)-GLYS (3,9 disulfide bond)
Kd (α7 nAChR [4]): 6830 nM

B7: AJ003-24 (peptide)
peptide: GSCS[dT]PPG[dC]VLYS
modifications: disulfide 3-9
notes: Printed: GSCS-(D-Thr)-PPG-(D-Cys)-VLYS (3,9 disulfide bond)
Kd (α7 nAChR [4]): 14000 nM

B8: AJ003-20 (peptide)
peptide: GSCS[dT]PPS[dC]VAYS
modifications: disulfide 3-9
notes: Printed: GSCS-(D-Thr)-PPS-(D-Cys)-VAYS (3,9 disulfide bond)
Kd (α9 nAChR): 16.3 nM

B9: AJ003-27 (peptide)
peptide: GSCS[dT]PPS[dC]VIYS
modifications: disulfide 3-9
notes: Printed: GSCS-(D-Thr)-PPS-(D-Cys)-VIYS (3,9 disulfide bond)
Kd (α7 nAChR [4]): 323 nM

B10: AJ003-18 (peptide)
peptide: GSCS[dT]PPA[dC]VLYS
modifications: disulfide 3-9
notes: Printed: GSCS-(D-Thr)-PPA-(D-Cys)-VLYS (3,9 disulfide bond)
Kd (α9 nAChR): 42.6 nM

B11: AJ003-1 (peptide)
peptide: GSCS[dT]PPS[dC]VLYS
modifications: disulfide 3-9
notes: Printed: GSCS-(D-Thr)-PPS-(D-Cys)-VLYS (3,9 disulfide bond)
Kd (α9 nAChR): 86 nM | Kd (α7 nAChR [4]): 22 nM

B12: AJ003-14 (peptide)
peptide: GSCA[dT]PPS[dC]VLYS
modifications: disulfide 3-9
notes: Printed: GSCA-(D-Thr)-PPS-(D-Cys)-VLYS (3,9 disulfide bond)
Kd (α9 nAChR): 13900 nM

B13: AJ003-13 (peptide)
peptide: GACS[dT]PPS[dC]VLYS
modifications: disulfide 3-9
notes: Printed: GACS-(D-Thr)-PPS-(D-Cys)-VLYS (3,9 disulfide bond)
Kd (α9 nAChR): 6690 nM
